Laboratory results: patent publication US20250313632A1
Residue numbers refer to the chain shown, from its start. One block for each molecule: values may come before it.

Experiments:
[1] = molecular target: human B7-H3 expressed on A375 tumor cells (human) (UniProt Q5ZPR3); assay: flow cytometry on A375 cells, MFI(PE); unit from the axis Conc (nM); fit value of a flat control curve
[2] = molecular target: human B7-H3 expressed on A375 tumor cells (human) (UniProt Q5ZPR3); assay: flow cytometry on A375 cells, MFI(PE); unit from the axis Conc(nM); fit value of a flat control curve
[3] = molecular target: human B7-H3 protein (human) (UniProt Q5ZPR3); assay: Octet (BLI) epitope binning on captured human B7-H3; competitor 72D1D11
[4] = molecular target: human B7-H3 protein (human) (UniProt Q5ZPR3); assay: Octet (BLI) epitope binning on captured human B7-H3; competitor AHP06345
[5] = molecular target: human B7-H3 expressed on A375 tumor cells (human) (UniProt Q5ZPR3); assay: flow cytometry on A375 cells, MFI(PE); unit from the axis Conc (nM)
[6] = molecular target: human B7-H3 expressed on A375 tumor cells (human) (UniProt Q5ZPR3); assay: as above; remark: listed apart in the source
[7] = molecular target: human B7-H3 protein (human) (UniProt Q5ZPR3); assay: Octet (BLI) epitope binning on captured human B7-H3; competitor AHP05562
[8] = molecular target: human B7-H3 protein (human) (UniProt Q5ZPR3); assay: Octet (BLI) epitope binning on captured human B7-H3; competitor CA84D
[9] = molecular target: human B7-H3 (4Ig) protein (his tag) (human) (UniProt Q5ZPR3); assay: SPR (Biacore T200), antibody captured on Protein A chip, B7-H3 injected, 1:1 model
[10] = molecular target: human B7-H3 expressed on A375 tumor cells (human) (UniProt Q5ZPR3); assay: flow cytometry on A375 cells, MFI(PE); unit from the axis Conc(nM)
[11] = molecular target: human B7-H3 expressed on A375 tumor cells (human) (UniProt Q5ZPR3); assay: flow cytometry on A375 cells, MFI(647); unit from the axis Conc (nM)
[12] = molecular target: human B7-H3 expressed on A375 tumor cells (human) (UniProt Q5ZPR3); assay: flow cytometry on A375 cells, MFI(PE); unit from the axis Conc (nM); remark: listed apart in the source
[13] = molecular target: human B7-H3 expressed on A375 tumor cells (human) (UniProt Q5ZPR3); assay: as above; remark: listed apart in the source
[14] = molecular target: human B7-H3 expressed on A375 tumor cells (human) (UniProt Q5ZPR3); assay: flow cytometry on A375 cells, MFI(647); unit from the axis Conc (nM); fit value of a flat curve
[15] = molecular target: human B7-H3 expressed on A375 tumor cells (human) (UniProt Q5ZPR3); assay: flow cytometry on A375 cells, MFI(PE); unit from the axis Conc (nM); remark: listed apart in the source
[16] = molecular target: human B7-H3 expressed on A375 tumor cells (human) (UniProt Q5ZPR3); assay: as above; remark: listed apart in the source
[17] = molecular target: human B7-H3 expressed on A375 tumor cells (human) (UniProt Q5ZPR3); assay: flow cytometry on A375.S2 cells, MFI(647); unit from the axis Conc (nM)

B1: 81C8A1 (antibody, V domains shown)
VH: QVTLKESGPGILQPSQTLSLTCSFSGFSLSTSGMGVSWIRQPPGKGLEWLAHIYWDDDRRYNPSLKSRLTISRDTSRNQVFLQITTVDTADTATYYCARSPYGSEAYWGQGTLVIVSA
VL: QIVLSQSPTILSAFPGEKVTMTCRASSSVSFIQWYQQKSGSSPKPWIYSPSNLASGVPTRFSGSGSGTSYSLTIGRVEAEDAATYYCQQWSSYPWTFGGGTKVEIK
inhibition ratio [3]: 95.4%
inhibition ratio [4]: -12.1%
EC50 [5]: 0.00025 µM
EC50 [6]: 0.00017 µM
inhibition ratio [7]: 90.6%
inhibition ratio [8]: -6.3%
Kd [9]: 0.000196 µM
koff [9]: 0.000111 s⁻¹
kon [9]: 567000 M⁻¹ s⁻¹

B3: 72D1D11-z3 (antibody, V domains shown)
VH: QVQLVQSGSELKKPGASVKVSCKASGYTFTNLGLNWVRQAPGQGLEWMGWINTAGGQPTYAEDFKGRFVFSLDTSVSTAYLQISSLKAEDTAVYYCARDDGYYYTMDYWGQGTTVTVSS
VL: DIVMTQSPLSLPVTPGEPASISCRSSQSLVHSNGKTYLHWYLQKPGQSPQLLIYKVSNRFSGVPDRFSGSGSGTDFTLKISRVEAEDVGVYYCSQSTHVPWTFGGGTKLEIK
EC50 [11]: 0.00064 µM
EC50 [12]: 0.00058 µM
EC50 [6]: 0.0004 µM

B4: 72D1D11-z11 (antibody, V domains shown)
VH: B3 VH with E46K, F68C, Y95F
VL: B3 VL
EC50 [13]: 0.00036 µM

B5: 72D1D11-z3p7 (antibody, V domains shown)
VH: B3 VH with D100L
VL: B3 VL with G34A
EC50 [14]: 115 µM

B6: 72D1D11-z15 (antibody, V domains shown)
VH: B3 VH with V2I, R38K, E46K, F68C, Y95F
VL: B3 VL
EC50 [13]: 0.00047 µM

B7: 72D1D11-z3p6 (antibody, V domains shown)
VH: B3 VH with D100R
VL: B3 VL with G34A
EC50 [14]: 20.9 µM

B8: 72D1D11-z9 (antibody, V domains shown)
VH: B3 VH with E46K, F68C, Y95F
VL: B3 VL with S7T
EC50 [13]: 0.00051 µM

B9: 72D1D11-z3p8 (antibody, V domains shown)
VH: B3 VH with D100A
VL: B3 VL with G34A
EC50 [14]: 22.4 µM

B10: 72D1D11-z13 (antibody, V domains shown)
VH: B3 VH with V2I, R38K, E46K, F68C, Y95F
VL: B3 VL with S7T
EC50 [13]: 0.00036 µM

B13: 81C8A1-z3 (antibody, V domains shown)
VH: QVTLKESGPALVKPTQTLTLTCTFSGFSLSTSGMGVSWIRQPPGKALEWLAHIYWDDDRRYNPSLKSRLTISKDTSKNQVVLTMTNMDPVDTATYYCARSPYGSEAYWGQGTLVTVSS
VL: EIVLTQSPDFQSVTPKEKVTITCRASSSVSFIQWYQQKPDQSPKPWIYSPSNLASGVPSRFSGSGSGTDFTLTINSLEAEDAATYYCQQWSSYPWTFGQGTKVEIK
EC50 [5]: 0.00023 µM

B16: 81C8A1-z4 (antibody, V domains shown)
VH: B13 VH
VL: B13 VL with T5S, F70Y
EC50 [5]: 0.00028 µM

B18: 72D1D11-z14 (antibody, V domains shown)
VH: B3 VH with V2I, R38K, E46K, F68C, Y95F
VL: B3 VL with S7T, Y92F
EC50 [13]: 0.00057 µM

B19: 72D1D11-z16 (antibody, V domains shown)
VH: B3 VH with V2I, R38K, E46K, F68C, Y95F
VL: B3 VL with Y92F
EC50 [13]: 0.00032 µM

B20: 72D1D11-z12 (antibody, V domains shown)
VH: B3 VH with E46K, F68C, Y95F
VL: B3 VL with Y92F
EC50 [13]: 0.00035 µM

B21: 72D1D11-p1 (antibody, V domains shown)
VH: QIQLVQSGPELKKPGETVKISCKASGYTFTNLGLNWVKQAPGKGLKWMGWINTAGGQPTYAEDFKGRCAFSLETSASTAYLQINNLKNEDTATYFCARDDGYYYTMDYWGQGTSVTVSS
VL: B3 VL with S7T, T14S, P15L, E17D, P18Q, G34A, Q50K, V88L, Y92F
EC50 [15]: 0.00049 µM

B22: 72D1D11-p2 (antibody, V domains shown)
VH: B21 VH
VL: B3 VL with S7T, T14S, P15L, E17D, P18Q, N33Q, Q50K, V88L, Y92F
EC50 [15]: 0.00054 µM

Second part, the molecule after the results:

EC50 [1]: 1970 µM
EC50 [2]: 0.014 µM
Molecule: hIgG (antibody)

EC50 [10]: 0.0024 µM
inhibition ratio [4]: 5.92%
inhibition ratio [7]: -3.53%
inhibition ratio [8]: 80.1%
Kd [9]: 0.00052 µM
koff [9]: 0.000862 s⁻¹
kon [9]: 1.66e+06 M⁻¹ s⁻¹
B2: AHP05564 (antibody, V domains shown)
VH: EVQLVETGGGVVQPGRSLRLSCAASGFTFSSSGMHWVRQAPGKGLEWVAVISYDVTNKYYVDSVKGRFTISRDNSENTLYLQMNSLRAEDTGVYYCVRDGGPRWLGWYFDLWGRGTLVTVSS
VL: NIQMTQSPSSQSASVGDRVTITCRANQAIANSLAWYQQKPGKAPKLLLFGTSLLHSGVPSRFSGSGSGTEYTLTISSLQPDDFGTYYCQQYFSFPRTFGQGTQVDVY

EC50 [10]: 0.00015 µM
EC50 [11]: 0.00041 µM
inhibition ratio [3]: 98.9%
EC50 [12]: 0.0003 µM
inhibition ratio [4]: -0.09%
EC50 [13]: 0.00019 µM
EC50 [5]: 0.00026 µM
EC50 [15]: 0.00034 µM
EC50 [6]: 0.00022 µM
inhibition ratio [7]: 91.5%
EC50 [16]: 0.00028 µM
EC50 [17]: 0.00037 µM
inhibition ratio [8]: 3.65%
Kd [9]: 0.00179 µM
koff [9]: 0.00132 s⁻¹
kon [9]: 737000 M⁻¹ s⁻¹
B11: MGA017 (antibody, from a related filing, V domains shown)
VH: EVQLVESGGGLVKPGGSLRLSCAASGFTFSSYGMSWVRQAPGKGLEWVATINSGGSNTYYPDSLKGRFTISRDNAKNSLYLQMNSLRAEDTAVYYCARHDGGAMDYWGQGTTVTVSS
VL: DIQMTQSPSSLSASVGDRVTITCRASESIYSYLAWYQQKPGKAPKLLVYNTKTLPEGVPSRFSGSGSGTDFTLTISSLQPEDFATYYCQHHYGTPPWTFGQGTRLEIK

inhibition ratio [3]: -32.6%
inhibition ratio [4]: 90%
inhibition ratio [7]: -24.4%
EC50 [17]: 0.00019 µM
inhibition ratio [8]: -18.3%
B12: 312E1E2 (antibody, V domains shown)
VH: QVQLQQSGPELVRPGVSVKISCKGSGYTFTDYAMHWVKQSHAKSLEWIGIVSTHYGNTNYNQNFKGKATMTVDKSSSTVYMELARLTSEDSAIYYCARSEGLRLDWFAHWGQGTLVTVSA
VL: DIQMTQSPASLSASVGEIVTITCRASENIYSYLAWYQQKQGKSPHLLVYNAKTLAEGVPSRFSGSGSGTQFSLKISRLQPEDFGSYYCQNHYVFPFTFGSGTKLEIK

EC50 [5]: 0.00025 µM
B14: 81C8A1-z8 (antibody, V domains shown)
VH: B13 VH with K73R
VL: B13 VL with T5S, F70Y

EC50 [5]: 0.00039 µM
B15: 81C8A1-z7 (antibody, V domains shown)
VH: B13 VH with K73R
VL: B13 VL

inhibition ratio [3]: 98.9%
inhibition ratio [4]: -11.5%
inhibition ratio [7]: -22.4%
EC50 [17]: 0.0007 µM
inhibition ratio [8]: -8%
B17: 429H9F10 (antibody, V domains shown)
VH: QIQLVQSGPELKKPGETVKISCKASGYTFTYYGLNWVKQAPGKGLRWMGWINTSSGVPTYADDFKGRFAISLESSASTVFLEISNLKNEDTAAYFCAKDDGYFYTMDHWGQGTSVTVSS
VL: DIVMTQPPLSLPVSLGDQASISCRSSQSLVHNNGKTYLHWYLQKPGQSPKLLIYKVSNRFSGVPDRFSGSGSGTDFTLKISRVETEDLGVYFCSQSTQVPWTFGGGTKLEIK
